Data on 47 variants can be found in the Human Domainome abundance scans (Beltran et al. 2025).

B1: Protein piccolo, residues 1058 to 1114; numbered along this chain, Q9Y6V0 (parent)
chain: TCPLCKTELNIGSKDPPNFNTCTECKNQVCNLCGFNPTPHLTEIQEWLCLNCQTQRA

± gives the uncertainty stated by the source.

The series covers variants of B1. Put plainly: abundance fitness (aPCA) (normalised: wild type 0, dead -1); higher = more abundant; growth selection in yeast, the domain comes from the species named. The conditions noted are these: Homo sapiens.
Turning to TCPLCKTELNIGSKDPPNFNDCTECKNQVCNLCGFNPTPHLTEIQEWLCLNCQTQRA, the abundance fitness is -0.078 ± 0.19. Next, TCPLCKTELNIGSKDPPNFNECTECKNQVCNLCGFNPTPHLTEIQEWLCLNCQTQRA: 0.036 ± 0.12; TCPLCKTELNIGSKDPPNFNHCTECKNQVCNLCGFNPTPHLTEIQEWLCLNCQTQRA: 0.013 ± 0.19.

Consider TCPLCKTELNIGSKDPPNFNKCTECKNQVCNLCGFNPTPHLTEIQEWLCLNCQTQRA, for which the abundance fitness was 0.198 ± 0.15.

For the variant TCPLCKTELNIGSKDPPNFNFCTECKNQVCNLCGFNPTPHLTEIQEWLCLNCQTQRA, the abundance fitness is -0.109 ± 0.16.

In the case of TCPLCKTELNIGSKDPPNFNGCTECKNQVCNLCGFNPTPHLTEIQEWLCLNCQTQRA, the abundance fitness was -0.053 ± 0.099. Turning to TCPLCKTELNIGSKDPPNFNCCTECKNQVCNLCGFNPTPHLTEIQEWLCLNCQTQRA, the abundance fitness stood at 0.032 ± 0.13. Take TCPLCKTELNIGSKDPPNFNSCTECKNQVCNLCGFNPTPHLTEIQEWLCLNCQTQRA: the abundance fitness is 0.083 ± 0.11. Take TCPLCKTELNIGSKDPPNFNMCTECKNQVCNLCGFNPTPHLTEIQEWLCLNCQTQRA: the abundance fitness was 0.298 ± 0.14. Turning to TCPLCKTELNIGSKDPPNFNWCTECKNQVCNLCGFNPTPHLTEIQEWLCLNCQTQRA, the abundance fitness was determined as 0.106 ± 0.12. Regarding TCPLCKTELNIGSKDPPNFNYCTECKNQVCNLCGFNPTPHLTEIQEWLCLNCQTQRA, the abundance fitness turned out to be 0.135 ± 0.18.

Consider TCPLCKTELNIGSKDPPNFNACTECKNQVCNLCGFNPTPHLTEIQEWLCLNCQTQRA, for which the abundance fitness was 0.004 ± 0.1. In the case of TCPLCKTELNIGSKDPPNFNPCTECKNQVCNLCGFNPTPHLTEIQEWLCLNCQTQRA, the abundance fitness was -0.169 ± 0.14. For the variant TCPLCKTELNIGSKDPPNFNLCTECKNQVCNLCGFNPTPHLTEIQEWLCLNCQTQRA, the abundance fitness is -0.098 ± 0.089. For TCPLCKTELNIGSKDPPNFNVCTECKNQVCNLCGFNPTPHLTEIQEWLCLNCQTQRA, the abundance fitness stood at 0.091 ± 0.092. For TCPLCKTELNIGSKDPPNFNTCAECKNQVCNLCGFNPTPHLTEIQEWLCLNCQTQRA the value was 0.097 ± 0.098; for TCPLCKTELNIGSKDPPNFGTCTECKNQVCNLCGFNPTPHLTEIQEWLCLNCQTQRA, 0.055 ± 0.083; for TCPLCKTELNIGSKDPPNFRTCTECKNQVCNLCGFNPTPHLTEIQEWLCLNCQTQRA, 0.078 ± 0.08. TCPLCKTELNIGSKDPPNFVTCTECKNQVCNLCGFNPTPHLTEIQEWLCLNCQTQRA: the abundance fitness is 0.07 ± 0.097. TCPLCKTELNIGSKDPPNFETCTECKNQVCNLCGFNPTPHLTEIQEWLCLNCQTQRA: the abundance fitness is -0.012 ± 0.14. Next, TCPLCKTELNIGSKDPPNFITCTECKNQVCNLCGFNPTPHLTEIQEWLCLNCQTQRA: -0.115 ± 0.14; TCPLCKTELNIGSKDPPNFWTCTECKNQVCNLCGFNPTPHLTEIQEWLCLNCQTQRA: -0.188 ± 0.096. Next, TCPLCKTELNIGSKDPPNFSTCTECKNQVCNLCGFNPTPHLTEIQEWLCLNCQTQRA: -0.082 ± 0.093; TCPLCKTELNIGSKDPPNFTTCTECKNQVCNLCGFNPTPHLTEIQEWLCLNCQTQRA: 0.067 ± 0.12; TCPLCKTELNIGSKDPPNFMTCTECKNQVCNLCGFNPTPHLTEIQEWLCLNCQTQRA: 0.188 ± 0.16. Take TCPLCKTELNIGSKDPPNFYTCTECKNQVCNLCGFNPTPHLTEIQEWLCLNCQTQRA: the abundance fitness is -0.337 ± 0.15. Turning to TCPLCKTELNIGSKDPPNFQTCTECKNQVCNLCGFNPTPHLTEIQEWLCLNCQTQRA, the abundance fitness came out at 0.094 ± 0.15. With TCPLCKTELNIGSKDPPNFFTCTECKNQVCNLCGFNPTPHLTEIQEWLCLNCQTQRA, the abundance fitness was -0.051 ± 0.13.

Consider TCPLCKTELNIGSKDPPNFLTCTECKNQVCNLCGFNPTPHLTEIQEWLCLNCQTQRA, for which the abundance fitness was -0.024 ± 0.085. For TCPLCKTELNIGSKDPPNFNTATECKNQVCNLCGFNPTPHLTEIQEWLCLNCQTQRA the value was -0.647 ± 0.11.

Take TCPLCKTELNIGSKDPPNFNTVTECKNQVCNLCGFNPTPHLTEIQEWLCLNCQTQRA: the abundance fitness was -0.733 ± 0.099.

As for TCPLCKTELNIGSKDPPNFNTYTECKNQVCNLCGFNPTPHLTEIQEWLCLNCQTQRA, the abundance fitness is -0.899 ± 0.21.

On to TCPLCKTELNIGSKDPPNFNTSTECKNQVCNLCGFNPTPHLTEIQEWLCLNCQTQRA, for which the abundance fitness is -0.611 ± 0.11. Next, TCPLCKTELNIGSKDPPNFNTTTECKNQVCNLCGFNPTPHLTEIQEWLCLNCQTQRA: -0.736 ± 0.15; TCPLCKTELNIGSKDPPNFNTITECKNQVCNLCGFNPTPHLTEIQEWLCLNCQTQRA: -1.04 ± 0.2; TCPLCKTELNIGSKDPPNFNTQTECKNQVCNLCGFNPTPHLTEIQEWLCLNCQTQRA: -0.791 ± 0.17.

On to TCPLCKTELNIGSKDPPNFNTETECKNQVCNLCGFNPTPHLTEIQEWLCLNCQTQRA, for which the abundance fitness is -0.54 ± 0.16. Next, TCPLCKTELNIGSKDPPNFNTHTECKNQVCNLCGFNPTPHLTEIQEWLCLNCQTQRA: -0.567 ± 0.15; TCPLCKTELNIGSKDPPNFNTGTECKNQVCNLCGFNPTPHLTEIQEWLCLNCQTQRA: -0.69 ± 0.11.

On to TCPLCKTELNIGSKDPPNFNTWTECKNQVCNLCGFNPTPHLTEIQEWLCLNCQTQRA, for which the abundance fitness was -1.03 ± 0.21. For TCPLCKTELNIGSKDPPNFNTKTECKNQVCNLCGFNPTPHLTEIQEWLCLNCQTQRA the value was -0.818 ± 0.24. For TCPLCKTELNIGSKDPPNFNTLTECKNQVCNLCGFNPTPHLTEIQEWLCLNCQTQRA the value was -0.675 ± 0.11.

As to TCPLCKTELNIGSKDPPNFNTFTECKNQVCNLCGFNPTPHLTEIQEWLCLNCQTQRA, the abundance fitness was -0.958 ± 0.18. For TCPLCKTELNIGSKDPPNFNTDTECKNQVCNLCGFNPTPHLTEIQEWLCLNCQTQRA, the abundance fitness is -0.817 ± 0.2. Turning to TCPLCKTELNIGSKDPPNFNTPTECKNQVCNLCGFNPTPHLTEIQEWLCLNCQTQRA, the abundance fitness is -0.938 ± 0.17. TCPLCKTELNIGSKDPPNFNTMTECKNQVCNLCGFNPTPHLTEIQEWLCLNCQTQRA: the abundance fitness is -0.74 ± 0.2. On to TCPLCKTELNIGSKDPPNFNTRTECKNQVCNLCGFNPTPHLTEIQEWLCLNCQTQRA, for which the abundance fitness was -0.484 ± 0.11.
